Experiment [1] has as its target T1, β-Klotho overexpressed in recombinant human 293T kidney cells. Briefly: cell-based or functional assay.
The target of experiment [2] is T1, β-Klotho overexpressed in recombinant …. The experiment can be described thus: cell-based or functional assay. The source holds these as a separate data set.

B1: FGF21 truncation mutant 5-181 (ligand)
chain: DSSPLLQFGGQVRQRYLYTDDAQQTEAHLEIREDGTVGGAADQSPESLLQLKALKPGVIQILGVKTSRFLCQRPDGALYGSLHFDPEACSFRELLLEDGYNVYQSEAHGLPLHLPGNKSPHRDPAPRGPARFLPLPGLPPAPPEPPGILAPQPPDVGSSDPLSMVGPSQGRSPSYAS
B1: in experiment [1], the “Efficacy (ELK-luciferase, relative to wild-type FGF21)” value came to 120%.

B2: FGF21 truncation mutant 1-172 (ligand)
chain: HPIPDSSPLLQFGGQVRQRYLYTDDAQQTEAHLEIREDGTVGGAADQSPESLLQLKALKPGVIQILGVKTSRFLCQRPDGALYGSLHFDPEACSFRELLLEDGYNVYQSEAHGLPLHLPGNKSPHRDPAPRGPARFLPLPGLPPAPPEPPGILAPQPPDVGSSDPLSMVGPS
With B2, the “Efficacy (ELK-luciferase, relative to wild-type FGF21)” value in experiment [1] was 97.5%.

B3: human FGF21 (ligand)
chain: HPIPDSSPLLQFGGQVRQRYLYTDDAQQTEAHLEIREDGTVGGAADQSPESLLQLKALKPGVIQILGVKTSRFLCQRPDGALYGSLHFDPEACSFRELLLEDGYNVYQSEAHGLPLHLPGNKSPHRDPAPRGPARFLPLPGLPPAPPEPPGILAPQPPDVGSSDPLSMVGPSQGRSPSYAS
Take B3: in experiment [2], the “EC50 (nM), ELK-luciferase” value was 0.4 nM and the “Efficacy, ELK-luciferase” value turned out to be 100%.

B4: FGF21 truncation mutant 1-178 (ligand)
chain: HPIPDSSPLLQFGGQVRQRYLYTDDAQQTEAHLEIREDGTVGGAADQSPESLLQLKALKPGVIQILGVKTSRFLCQRPDGALYGSLHFDPEACSFRELLLEDGYNVYQSEAHGLPLHLPGNKSPHRDPAPRGPARFLPLPGLPPAPPEPPGILAPQPPDVGSSDPLSMVGPSQGRSPS
For the molecule B4, the “Efficacy (ELK-luciferase, relative to wild-type FGF21)” value in experiment [1] was found to be 95%.

B5: FGF21 truncation mutant 1-174 (ligand)
chain: HPIPDSSPLLQFGGQVRQRYLYTDDAQQTEAHLEIREDGTVGGAADQSPESLLQLKALKPGVIQILGVKTSRFLCQRPDGALYGSLHFDPEACSFRELLLEDGYNVYQSEAHGLPLHLPGNKSPHRDPAPRGPARFLPLPGLPPAPPEPPGILAPQPPDVGSSDPLSMVGPSQG
With B5, in experiment [1], the “Efficacy (ELK-luciferase, relative to wild-type FGF21)” value is 105%.

B6: FGF21 truncation mutant 1-167 (ligand)
chain: HPIPDSSPLLQFGGQVRQRYLYTDDAQQTEAHLEIREDGTVGGAADQSPESLLQLKALKPGVIQILGVKTSRFLCQRPDGALYGSLHFDPEACSFRELLLEDGYNVYQSEAHGLPLHLPGNKSPHRDPAPRGPARFLPLPGLPPAPPEPPGILAPQPPDVGSSDPLS
B6: the “Efficacy (ELK-luciferase, relative to wild-type FGF21)” value in experiment [1] was found to be 20%.

B7: FGF21 truncation mutant 1-166 (ligand)
chain: HPIPDSSPLLQFGGQVRQRYLYTDDAQQTEAHLEIREDGTVGGAADQSPESLLQLKALKPGVIQILGVKTSRFLCQRPDGALYGSLHFDPEACSFRELLLEDGYNVYQSEAHGLPLHLPGNKSPHRDPAPRGPARFLPLPGLPPAPPEPPGILAPQPPDVGSSDPL
Regarding B7, the “Efficacy (ELK-luciferase, relative to wild-type FGF21)” value in experiment [1] was 20%.

B8: FGF21 truncation mutant 1-165 (ligand)
chain: HPIPDSSPLLQFGGQVRQRYLYTDDAQQTEAHLEIREDGTVGGAADQSPESLLQLKALKPGVIQILGVKTSRFLCQRPDGALYGSLHFDPEACSFRELLLEDGYNVYQSEAHGLPLHLPGNKSPHRDPAPRGPARFLPLPGLPPAPPEPPGILAPQPPDVGSSDP
For B8, the “Efficacy (ELK-luciferase, relative to wild-type FGF21)” value in experiment [1] turned out to be 10%.

B9: FGF21 truncation mutant 1-177 (ligand)
chain: HPIPDSSPLLQFGGQVRQRYLYTDDAQQTEAHLEIREDGTVGGAADQSPESLLQLKALKPGVIQILGVKTSRFLCQRPDGALYGSLHFDPEACSFRELLLEDGYNVYQSEAHGLPLHLPGNKSPHRDPAPRGPARFLPLPGLPPAPPEPPGILAPQPPDVGSSDPLSMVGPSQGRSP
As to B9, the “Efficacy (ELK-luciferase, relative to wild-type FGF21)” value in experiment [1] worked out at 112%.

B10: FGF21 truncation mutant 1-173 (ligand)
chain: HPIPDSSPLLQFGGQVRQRYLYTDDAQQTEAHLEIREDGTVGGAADQSPESLLQLKALKPGVIQILGVKTSRFLCQRPDGALYGSLHFDPEACSFRELLLEDGYNVYQSEAHGLPLHLPGNKSPHRDPAPRGPARFLPLPGLPPAPPEPPGILAPQPPDVGSSDPLSMVGPSQ
As to B10, the “Efficacy (ELK-luciferase, relative to wild-type FGF21)” value in experiment [1] came out at 96.1%.

B11: FGF21 truncation mutant 1-169 (ligand)
chain: HPIPDSSPLLQFGGQVRQRYLYTDDAQQTEAHLEIREDGTVGGAADQSPESLLQLKALKPGVIQILGVKTSRFLCQRPDGALYGSLHFDPEACSFRELLLEDGYNVYQSEAHGLPLHLPGNKSPHRDPAPRGPARFLPLPGLPPAPPEPPGILAPQPPDVGSSDPLSMV
Turning to B11, the “Efficacy (ELK-luciferase, relative to wild-type FGF21)” value in experiment [1] worked out at 84.9%.

B12: FGF21 truncation mutant 1-176 (ligand)
chain: HPIPDSSPLLQFGGQVRQRYLYTDDAQQTEAHLEIREDGTVGGAADQSPESLLQLKALKPGVIQILGVKTSRFLCQRPDGALYGSLHFDPEACSFRELLLEDGYNVYQSEAHGLPLHLPGNKSPHRDPAPRGPARFLPLPGLPPAPPEPPGILAPQPPDVGSSDPLSMVGPSQGRS
On to B12, for which, in experiment [1], the “Efficacy (ELK-luciferase, relative to wild-type FGF21)” value is 105%.

B13: FGF21 truncation mutant 9-181 (ligand)
chain: LLQFGGQVRQRYLYTDDAQQTEAHLEIREDGTVGGAADQSPESLLQLKALKPGVIQILGVKTSRFLCQRPDGALYGSLHFDPEACSFRELLLEDGYNVYQSEAHGLPLHLPGNKSPHRDPAPRGPARFLPLPGLPPAPPEPPGILAPQPPDVGSSDPLSMVGPSQGRSPSYAS
B13: the “Efficacy (ELK-luciferase, relative to wild-type FGF21)” value in experiment [1] was 12.5%.

B14: FGF21 truncation mutant 4-181 (ligand)
chain: PDSSPLLQFGGQVRQRYLYTDDAQQTEAHLEIREDGTVGGAADQSPESLLQLKALKPGVIQILGVKTSRFLCQRPDGALYGSLHFDPEACSFRELLLEDGYNVYQSEAHGLPLHLPGNKSPHRDPAPRGPARFLPLPGLPPAPPEPPGILAPQPPDVGSSDPLSMVGPSQGRSPSYAS
In the case of B14, the “Efficacy (ELK-luciferase, relative to wild-type FGF21)” value in experiment [1] was found to be 117%.

B15: FGF21 truncation mutant 1-171 (ligand)
chain: HPIPDSSPLLQFGGQVRQRYLYTDDAQQTEAHLEIREDGTVGGAADQSPESLLQLKALKPGVIQILGVKTSRFLCQRPDGALYGSLHFDPEACSFRELLLEDGYNVYQSEAHGLPLHLPGNKSPHRDPAPRGPARFLPLPGLPPAPPEPPGILAPQPPDVGSSDPLSMVGP
B15: in experiment [1], the “Efficacy (ELK-luciferase, relative to wild-type FGF21)” value came to 113%.

B16: FGF21 truncation mutant 2-181 (ligand)
chain: PIPDSSPLLQFGGQVRQRYLYTDDAQQTEAHLEIREDGTVGGAADQSPESLLQLKALKPGVIQILGVKTSRFLCQRPDGALYGSLHFDPEACSFRELLLEDGYNVYQSEAHGLPLHLPGNKSPHRDPAPRGPARFLPLPGLPPAPPEPPGILAPQPPDVGSSDPLSMVGPSQGRSPSYAS
For the molecule B16, in experiment [1], the “Efficacy (ELK-luciferase, relative to wild-type FGF21)” value was 112%.

B17: FGF21 truncation mutant 1-180 (ligand)
chain: HPIPDSSPLLQFGGQVRQRYLYTDDAQQTEAHLEIREDGTVGGAADQSPESLLQLKALKPGVIQILGVKTSRFLCQRPDGALYGSLHFDPEACSFRELLLEDGYNVYQSEAHGLPLHLPGNKSPHRDPAPRGPARFLPLPGLPPAPPEPPGILAPQPPDVGSSDPLSMVGPSQGRSPSYA
As to B17, in experiment [1], the “Efficacy (ELK-luciferase, relative to wild-type FGF21)” value worked out at 93.2%.

B18: FGF21 truncation mutant 3-181 (ligand)
chain: IPDSSPLLQFGGQVRQRYLYTDDAQQTEAHLEIREDGTVGGAADQSPESLLQLKALKPGVIQILGVKTSRFLCQRPDGALYGSLHFDPEACSFRELLLEDGYNVYQSEAHGLPLHLPGNKSPHRDPAPRGPARFLPLPGLPPAPPEPPGILAPQPPDVGSSDPLSMVGPSQGRSPSYAS
Take B18: the “Efficacy (ELK-luciferase, relative to wild-type FGF21)” value in experiment [1] is 130%.

B19: FGF21 truncation mutant 8-181 (ligand)
chain: PLLQFGGQVRQRYLYTDDAQQTEAHLEIREDGTVGGAADQSPESLLQLKALKPGVIQILGVKTSRFLCQRPDGALYGSLHFDPEACSFRELLLEDGYNVYQSEAHGLPLHLPGNKSPHRDPAPRGPARFLPLPGLPPAPPEPPGILAPQPPDVGSSDPLSMVGPSQGRSPSYAS
Regarding B19, in experiment [1], the “Efficacy (ELK-luciferase, relative to wild-type FGF21)” value amounted to 24.9%.

B20: FGF21 truncation mutant 7-181 (ligand)
chain: SPLLQFGGQVRQRYLYTDDAQQTEAHLEIREDGTVGGAADQSPESLLQLKALKPGVIQILGVKTSRFLCQRPDGALYGSLHFDPEACSFRELLLEDGYNVYQSEAHGLPLHLPGNKSPHRDPAPRGPARFLPLPGLPPAPPEPPGILAPQPPDVGSSDPLSMVGPSQGRSPSYAS
Regarding B20, the “Efficacy (ELK-luciferase, relative to wild-type FGF21)” value in experiment [1] worked out at 74.2%.

These data come from patent publication US20100285131A1 (Amgen, published 2010).
